*1 amine or outer side, *2 acyl side, *3 side chain or, on linkers, in order; H or OH if unused. Bridges are numbered along the chain shown (N, C = ends). [ ]: non-standard residue; d: D form. The star is where a group is joined. DOTA = O=C(O)CN1CCN(CC(=O)O)CCN(CC(=O)*)CCN(CC(=O)O)CC1; N(2-mercaptoethyl)Gly = O=C(CN(CCS[*:3])[*:1])[*:2]
Assays:
Test in all cases: cell-based or functional assay
[1] = molecular target: CCR1 (human) (UniProt P32246)
[2] = molecular target: HTR1E (human) (UniProt P28566)
[3] = molecular target: PTGIR (human) (UniProt P43119)
[4] = molecular target: MRGPRX2 (human) (UniProt Q96LB1)
[5] = molecular target: CCR6 (human) (UniProt P51684)
[6] = molecular target: NPFFR1 (human) (UniProt Q9GZQ6)
[7] = molecular target: PTGFR (human) (UniProt P43088)
[8] = molecular target: ADORA3 (human) (UniProt P0DMS8)
[9] = molecular target: VIPR2 (human) (UniProt P41587)
[10] = molecular target: TRHR (human) (UniProt P34981)
[11] = molecular target: P2RY1 (human) (UniProt P47900)
[12] = molecular target: PTGER4 (human) (UniProt P35408)
[13] = molecular target: CRHR1 (human) (UniProt P34998)
[14] = molecular target: C5L2 (human) (UniProt Q9P296)
[15] = molecular target: EDG4 (human) (UniProt Q9HBW0)
[16] = molecular target: DRD2S (human) (UniProt P14416)
[17] = molecular target: HRH4 (human) (UniProt Q9H3N8)
[18] = molecular target: AGTRL1 (human) (UniProt P35414)
[19] = molecular target: PROKR1 (human) (UniProt Q8TCW9)
[20] = molecular target: (CR)R-RAMP3 (human) (UniProt P30988)
[21] = molecular target: EDG3 (human) (UniProt Q99500)
[22] = molecular target: (CR)R-RAMP2 (human) (UniProt P30988)
[23] = molecular target: OPRK1 (human) (UniProt P41145)
[24] = molecular target: FPR1 (human) (UniProt P21462)
[25] = molecular target: RXFP3 (human) (UniProt Q9NSD7)
[26] = molecular target: EDNRA (human) (UniProt P25101)
[27] = molecular target: HTR1B (human) (UniProt P28222)
[28] = molecular target: EDG6 (human) (UniProt O95977)
[29] = molecular target: F2R (human) (UniProt P25116)
[30] = molecular target: HTR5A (human) (UniProt P47898)
[31] = molecular target: CCR7 (human) (UniProt P32248)
[32] = molecular target: CCR8 (human) (UniProt P51685)
[33] = molecular target: CXCR6 (human) (UniProt O00574)
[34] = molecular target: AGTR1 (human) (UniProt P30556)
[35] = molecular target: CHRM2 (human) (UniProt P08172)
[36] = molecular target: EDG7 (human) (UniProt Q9UBY5)
[37] = molecular target: HTR2C (human) (UniProt P28335)
[38] = molecular target: MCHR2 (human) (UniProt Q969V1)
[39] = molecular target: PTHR1 (human) (UniProt Q03431)
[40] = molecular target: FSHR (human) (UniProt P23945)
[41] = molecular target: human cloned somatostatin receptor 3 (human) (UniProt P32745)
[42] = molecular target: GIPR (human) (UniProt P48546)
[43] = molecular target: MRGPRX1 (human) (UniProt Q96LB2)
[44] = molecular target: AVPR1B (human) (UniProt P47901)
[45] = molecular target: LTB4R (human) (UniProt Q15722)
[46] = molecular target: (CR)L-RAMP3 (human) (UniProt Q16602)
[47] = molecular target: PROKR2 (human) (UniProt Q8NFJ6)
[48] = molecular target: human cloned somatostatin receptor 2 (human) (UniProt P30874)
[49] = molecular target: ADRA2B (human) (UniProt P18089)
[50] = molecular target: FFAR1 (human) (UniProt O14842)
[51] = molecular target: BDKRB1 (human) (UniProt P46663)
[52] = molecular target: CX3CR1 (human) (UniProt P49238)
[53] = molecular target: DRD5 (human) (UniProt P21918)
[54] = molecular target: PPYR1 (human) (UniProt P50391)
[55] = molecular target: TACR2 (human) (UniProt P21452)
[56] = molecular target: GPR120 (human) (UniProt Q5NUL3)
[57] = molecular target: NPBWR1 (human) (UniProt P48145)
[58] = molecular target: GPR119 (human) (UniProt Q8TDV5)
Sequence of GPR119 (human) (Q8TDV5 whole entry): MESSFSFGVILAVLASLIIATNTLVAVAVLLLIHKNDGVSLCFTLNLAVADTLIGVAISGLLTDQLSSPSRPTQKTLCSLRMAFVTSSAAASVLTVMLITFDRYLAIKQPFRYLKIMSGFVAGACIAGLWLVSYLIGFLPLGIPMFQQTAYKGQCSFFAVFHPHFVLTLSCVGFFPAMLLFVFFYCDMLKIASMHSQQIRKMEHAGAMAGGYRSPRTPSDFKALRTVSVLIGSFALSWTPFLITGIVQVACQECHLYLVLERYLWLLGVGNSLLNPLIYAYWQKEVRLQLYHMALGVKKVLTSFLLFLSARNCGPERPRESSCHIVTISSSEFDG

Sequence of human cloned somatostatin receptor 3 (human) (P32745 whole entry): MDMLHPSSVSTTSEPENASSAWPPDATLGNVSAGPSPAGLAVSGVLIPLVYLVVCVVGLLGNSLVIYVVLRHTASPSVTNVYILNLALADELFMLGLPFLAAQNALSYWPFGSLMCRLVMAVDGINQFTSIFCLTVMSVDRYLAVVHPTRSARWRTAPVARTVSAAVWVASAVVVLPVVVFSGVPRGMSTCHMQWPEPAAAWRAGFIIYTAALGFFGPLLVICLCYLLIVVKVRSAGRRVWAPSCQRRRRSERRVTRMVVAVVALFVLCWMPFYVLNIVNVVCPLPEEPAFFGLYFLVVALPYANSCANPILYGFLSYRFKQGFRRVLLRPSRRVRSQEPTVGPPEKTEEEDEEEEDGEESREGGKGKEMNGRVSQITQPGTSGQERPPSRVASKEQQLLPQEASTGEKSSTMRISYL
Sequence of AGTR1 (human) (P30556 whole entry): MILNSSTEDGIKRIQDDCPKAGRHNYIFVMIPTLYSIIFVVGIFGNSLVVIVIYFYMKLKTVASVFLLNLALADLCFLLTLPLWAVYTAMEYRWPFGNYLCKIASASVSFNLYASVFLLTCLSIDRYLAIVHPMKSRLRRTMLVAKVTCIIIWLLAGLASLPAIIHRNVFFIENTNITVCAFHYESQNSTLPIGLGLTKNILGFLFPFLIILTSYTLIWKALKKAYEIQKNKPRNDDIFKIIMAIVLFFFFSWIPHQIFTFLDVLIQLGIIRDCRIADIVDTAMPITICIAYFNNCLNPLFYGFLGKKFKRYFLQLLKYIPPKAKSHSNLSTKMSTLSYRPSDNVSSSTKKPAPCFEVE
Sequence of DRD2S (human) (P14416 other isoform, or with tags, fused parts or gaps): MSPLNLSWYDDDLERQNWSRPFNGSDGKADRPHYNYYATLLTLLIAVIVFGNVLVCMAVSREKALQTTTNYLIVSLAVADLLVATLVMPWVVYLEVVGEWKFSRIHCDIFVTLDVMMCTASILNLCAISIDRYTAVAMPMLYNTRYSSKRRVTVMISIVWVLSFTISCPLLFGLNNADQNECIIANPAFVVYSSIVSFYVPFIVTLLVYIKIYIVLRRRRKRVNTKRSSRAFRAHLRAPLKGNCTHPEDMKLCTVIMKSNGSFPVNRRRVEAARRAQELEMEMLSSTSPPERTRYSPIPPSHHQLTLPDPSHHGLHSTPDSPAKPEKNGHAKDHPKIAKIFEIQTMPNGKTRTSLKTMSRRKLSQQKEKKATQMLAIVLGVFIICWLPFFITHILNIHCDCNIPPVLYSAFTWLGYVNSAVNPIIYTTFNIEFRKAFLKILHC
Sequence of TACR2 (human) (P21452 whole entry): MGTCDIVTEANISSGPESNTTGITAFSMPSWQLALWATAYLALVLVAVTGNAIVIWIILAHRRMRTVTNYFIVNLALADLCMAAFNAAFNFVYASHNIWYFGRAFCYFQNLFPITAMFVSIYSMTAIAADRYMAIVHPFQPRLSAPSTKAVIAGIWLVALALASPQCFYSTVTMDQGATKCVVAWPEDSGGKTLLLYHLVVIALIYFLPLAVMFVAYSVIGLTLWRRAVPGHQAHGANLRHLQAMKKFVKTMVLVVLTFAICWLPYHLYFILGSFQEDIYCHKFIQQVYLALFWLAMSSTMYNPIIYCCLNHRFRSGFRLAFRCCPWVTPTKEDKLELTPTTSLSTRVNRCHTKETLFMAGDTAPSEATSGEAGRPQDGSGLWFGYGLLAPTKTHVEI
Sequence of ADORA3 (human) (P0DMS8 whole entry): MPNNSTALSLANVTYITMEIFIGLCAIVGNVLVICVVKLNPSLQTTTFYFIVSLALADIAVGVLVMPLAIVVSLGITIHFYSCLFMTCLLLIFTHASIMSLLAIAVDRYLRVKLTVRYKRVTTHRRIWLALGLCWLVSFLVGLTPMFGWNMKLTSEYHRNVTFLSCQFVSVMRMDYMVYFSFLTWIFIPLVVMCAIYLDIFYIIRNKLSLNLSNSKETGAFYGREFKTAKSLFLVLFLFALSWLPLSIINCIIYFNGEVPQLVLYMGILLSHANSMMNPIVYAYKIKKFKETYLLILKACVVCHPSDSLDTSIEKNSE
Sequence of MRGPRX2 (human) (Q96LB1 whole entry): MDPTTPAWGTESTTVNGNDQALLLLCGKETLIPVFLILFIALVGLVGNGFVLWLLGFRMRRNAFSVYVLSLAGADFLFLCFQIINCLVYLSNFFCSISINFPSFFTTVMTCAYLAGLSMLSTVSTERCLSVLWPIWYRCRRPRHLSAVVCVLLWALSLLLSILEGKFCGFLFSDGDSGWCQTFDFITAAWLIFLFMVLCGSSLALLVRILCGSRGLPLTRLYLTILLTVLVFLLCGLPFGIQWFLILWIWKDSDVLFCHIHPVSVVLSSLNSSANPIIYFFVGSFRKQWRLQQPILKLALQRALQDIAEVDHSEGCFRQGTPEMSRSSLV
Sequence of MRGPRX1 (human) (Q96LB2 whole entry): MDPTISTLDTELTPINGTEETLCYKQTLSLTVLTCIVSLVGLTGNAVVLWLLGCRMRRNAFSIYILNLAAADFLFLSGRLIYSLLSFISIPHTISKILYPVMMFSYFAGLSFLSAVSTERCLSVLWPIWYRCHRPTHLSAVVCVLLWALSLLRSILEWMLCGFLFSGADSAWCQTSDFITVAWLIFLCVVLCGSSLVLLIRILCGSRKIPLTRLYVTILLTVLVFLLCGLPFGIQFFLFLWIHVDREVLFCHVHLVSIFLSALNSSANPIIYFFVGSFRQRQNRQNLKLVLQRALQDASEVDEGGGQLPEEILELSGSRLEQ
Sequence of (CR)L-RAMP3 (human) (Q16602 23-461, chain 1 of 2): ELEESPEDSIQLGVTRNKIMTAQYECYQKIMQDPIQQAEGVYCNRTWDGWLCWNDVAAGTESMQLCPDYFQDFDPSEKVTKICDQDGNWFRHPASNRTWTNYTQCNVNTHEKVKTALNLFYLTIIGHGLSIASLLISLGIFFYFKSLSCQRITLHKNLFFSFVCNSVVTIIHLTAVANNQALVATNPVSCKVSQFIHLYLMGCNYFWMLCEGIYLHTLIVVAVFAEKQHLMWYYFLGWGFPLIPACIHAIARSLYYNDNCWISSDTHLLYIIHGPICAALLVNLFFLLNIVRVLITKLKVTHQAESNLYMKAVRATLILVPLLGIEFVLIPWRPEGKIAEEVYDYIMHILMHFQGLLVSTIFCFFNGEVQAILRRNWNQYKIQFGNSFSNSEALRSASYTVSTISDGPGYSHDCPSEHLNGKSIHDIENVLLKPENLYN
Sequence of (CR)L-RAMP3 (human) (O60896 24-148, chain 2 of 2, further chain): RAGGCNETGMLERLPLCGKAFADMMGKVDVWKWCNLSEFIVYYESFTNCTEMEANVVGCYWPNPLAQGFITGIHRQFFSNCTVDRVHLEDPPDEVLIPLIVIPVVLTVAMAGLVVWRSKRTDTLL
Sequence of CX3CR1 (human) (P49238 whole entry): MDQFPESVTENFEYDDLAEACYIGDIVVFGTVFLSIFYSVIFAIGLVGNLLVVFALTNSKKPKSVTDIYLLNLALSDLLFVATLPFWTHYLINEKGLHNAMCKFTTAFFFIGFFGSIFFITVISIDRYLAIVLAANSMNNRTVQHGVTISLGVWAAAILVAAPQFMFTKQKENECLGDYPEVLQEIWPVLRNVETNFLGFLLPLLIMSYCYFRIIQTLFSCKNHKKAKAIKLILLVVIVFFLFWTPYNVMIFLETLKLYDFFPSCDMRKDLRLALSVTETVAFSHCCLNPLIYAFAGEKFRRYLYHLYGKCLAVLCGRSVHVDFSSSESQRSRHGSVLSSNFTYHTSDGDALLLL
Sequence of CCR8 (human) (P51685 whole entry): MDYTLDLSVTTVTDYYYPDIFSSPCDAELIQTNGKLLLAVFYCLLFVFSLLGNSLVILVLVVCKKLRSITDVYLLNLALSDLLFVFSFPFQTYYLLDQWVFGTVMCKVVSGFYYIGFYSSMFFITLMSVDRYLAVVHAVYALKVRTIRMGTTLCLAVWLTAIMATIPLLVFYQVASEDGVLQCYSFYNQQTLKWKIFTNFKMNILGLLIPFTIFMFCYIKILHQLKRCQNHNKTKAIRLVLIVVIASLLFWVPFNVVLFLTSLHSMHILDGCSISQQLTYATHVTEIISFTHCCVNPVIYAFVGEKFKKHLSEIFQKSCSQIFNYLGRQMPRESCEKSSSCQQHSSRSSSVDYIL
Sequence of PTGFR (human) (P43088 whole entry): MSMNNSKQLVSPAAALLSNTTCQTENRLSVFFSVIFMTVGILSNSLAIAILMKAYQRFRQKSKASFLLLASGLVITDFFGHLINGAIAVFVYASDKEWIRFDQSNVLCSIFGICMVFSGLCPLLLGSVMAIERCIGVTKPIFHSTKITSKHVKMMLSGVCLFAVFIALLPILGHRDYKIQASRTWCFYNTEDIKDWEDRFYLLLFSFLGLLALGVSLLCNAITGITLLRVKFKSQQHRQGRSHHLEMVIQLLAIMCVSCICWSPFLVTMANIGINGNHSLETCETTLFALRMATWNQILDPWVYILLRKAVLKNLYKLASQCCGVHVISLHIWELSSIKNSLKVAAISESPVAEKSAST
Sequence of C5L2 (human) (Q9P296 whole entry): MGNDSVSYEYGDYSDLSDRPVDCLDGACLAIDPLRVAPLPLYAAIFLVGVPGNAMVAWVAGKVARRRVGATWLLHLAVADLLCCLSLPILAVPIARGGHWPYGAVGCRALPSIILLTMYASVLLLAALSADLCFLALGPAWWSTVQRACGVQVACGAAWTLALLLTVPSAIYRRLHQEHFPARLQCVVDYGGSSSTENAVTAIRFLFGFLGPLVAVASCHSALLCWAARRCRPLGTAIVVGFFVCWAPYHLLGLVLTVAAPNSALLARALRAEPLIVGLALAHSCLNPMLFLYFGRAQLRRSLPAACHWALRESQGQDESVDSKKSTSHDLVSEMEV

{DOTA}-[dF]RCF[dW]KTF[N(2-mercaptoethyl)Gly]-NH2 (disulfide 3-9; also: Ga complex of DOTA) [SEQ ID NO: 4] showed a % Activity (agonist mode, 1 µM) [1] of 3%, a % Activity (agonist mode, 1 µM) [2] of 1% and a % Activity (agonist mode, 1 µM) [3] of 0%. For the same binder, the % Activity (agonist mode, 1 µM) [4] was 1%, the % Activity (agonist mode, 1 µM) [5] was 0% and the % Activity (agonist mode, 1 µM) [6] was -2%. The % Activity (agonist mode, 1 µM) [7] was 0%, the % Activity (agonist mode, 1 µM) [8] was -6% and the % Activity (agonist mode, 1 µM) [9] was -1%. For the same binder, the % Activity (agonist mode, 1 µM) [10] was 3%, the % Activity (agonist mode, 1 µM) [11] was -2% and the % Activity (agonist mode, 1 µM) [12] was -2%. The % Activity (agonist mode, 1 µM) [13] was 0%, the % Activity (agonist mode, 1 µM) [14] was -1% and the % Activity (agonist mode, 1 µM) [15] was 6%. For the same binder, the % Activity (agonist mode, 1 µM) [16] was 0%, the % Activity (agonist mode, 1 µM) [17] was -2% and the % Activity (agonist mode, 1 µM) [18] was -1%. The % Activity (agonist mode, 1 µM) [19] was 0%, the % Activity (agonist mode, 1 µM) [20] was -13% and the % Activity (agonist mode, 1 µM) [21] was -1%. The % Activity (agonist mode, 1 µM) [22] was 0%, the % Activity (agonist mode, 1 µM) [23] was -2% and the % Activity (agonist mode, 1 µM) [24] was -1%. It also gave a % Activity (agonist mode, 1 µM) [25] of -3%, a % Activity (agonist mode, 1 µM) [26] of -1% and a % Activity (agonist mode, 1 µM) [27] of -1%. For the same binder, the % Activity (agonist mode, 1 µM) [28] was 10%, the % Activity (agonist mode, 1 µM) [29] was 1% and the % Activity (agonist mode, 1 µM) [30] was 0%. The % Activity (agonist mode, 1 µM) [31] was 1%, the % Activity (agonist mode, 1 µM) [32] was 0% and the % Activity (agonist mode, 1 µM) [33] was 1%. It also gave a % Activity (agonist mode, 1 µM) [34] of -2%, a % Activity (agonist mode, 1 µM) [35] of 0% and a % Activity (agonist mode, 1 µM) [36] of 0%. The % Activity (agonist mode, 1 µM) [37] was 0%, the % Activity (agonist mode, 1 µM) [38] was 1% and the % Activity (agonist mode, 1 µM) [39] was 0%. For the same binder, the % Activity (agonist mode, 1 µM) [40] was 3%, the % Activity (agonist mode, 1 µM) [41] was 200% and the Cellular Internalization EC50 (β-Arrestin Luminescence Assay) [41] was 16 nM. The Efficacy - maximal response [41] was 75200 RLU, the intensity of beta-arrestin response against SRIF-14 [41] was 2 fold and the % Activity (agonist mode, 1 µM) [42] was -2%. For the same binder, the % Activity (agonist mode, 1 µM) [43] was 0%, the % Activity (agonist mode, 1 µM) [44] was 1% and the % Activity (agonist mode, 1 µM) [45] was -1%. For the same binder, the % Activity (agonist mode, 1 µM) [46] was 0%, the % Activity (agonist mode, 1 µM) [47] was 2% and the % Activity (agonist mode, 1 µM) [48] was 9%. For the same binder, the % Activity (agonist mode, 1 µM) [49] was -1%, the % Activity (agonist mode, 1 µM) [50] was -4% and the % Activity (agonist mode, 1 µM) [51] was -5%. It also gave a % Activity (agonist mode, 1 µM) [52] of 0%, a % Activity (agonist mode, 1 µM) [53] of -2% and a % Activity (agonist mode, 1 µM) [54] of 1%. For the same binder, the % Activity (agonist mode, 1 µM) [55] was -1%, the % Activity (agonist mode, 1 µM) [56] was -4% and the % Activity (agonist mode, 1 µM) [57] was 2%. For the same binder, the % Activity (agonist mode, 1 µM) [58] was 19%.

— US20240165282A1, “CONFORMATIONAL CONSTRAINED SOMATOSTATIN RECEPTOR 3 PEPTIDE LIGANDS AND THEIR CONJUGATES AND USES THEREOF” (STARGET PHARMA LTD., priority 2021, published 2024)
